Patent US20090175866A1, “TREATMENT OF B-CELL MALIGNANCIES” (priority 2004, published 2009)

Legend:
H929 cells = assay: Viability of H929 myeloma cells (MTT); assay type: cell-based, human; conditions: 5 μg/ml
Description: FIG. 2 is a graph showing the viability of human myeloma cell lines in the presence of PRO-001. Viability is reported as the ratio between the optical density (OD) in the presence of FGF±inhibitor and the OD in the absence of FGF.
(§1) Non-transformed rat chondrocyte cell line expressing PGFR3 in an inducible manner (RCJ-FGFR3) has been described previously (Rauchenberger R. et al. J. Biol. Chem. 2003; 278:38194-205). Cells were maintained in α-Minimum Essential Media supplemented with 15% fetal calf serum (FCS), 2 mM L-Glutamine, 100 U/ml penicillin, 100 μg/ml streptomycin, 600 μg/ml G418 (Gibco BRL, Ontario, Canada), 2 μg/ml Tetracyclin (Sigma, Ontario, Canada), and 50 μg/ml HygromycinB (Gibco BRL). […]
(§2) Cell viability was assessed by 3-(4,5-dimethylthiazol)-2,5-diphenyl tetrazolium (MTT) or (2,3-bis(2-methoxy-4-nitro-5-sulphophenyl)-5-[(phenylamino) carbonyl]-2H-tetrazolium hydroxide (XTT) dye absorbance where indicated. Cells were seeded in 96-well plates at a density of 20,000 (FDCP-1 cells), 5,000 (B9 cells) or 25,000 cells (MM cell lines) per well in culture medium. Cells were incubated in the absence or presence of one of the following cytokines: 10 ng/ml FGF9 and 5 μg/ml heparin, 1% murine IL-6, 50 ng/ml IGF-1 or 50 ng/ml human IL-6 where indicated and increasing concentrations of PRO-001, control antibody (purified human Fab) or 100 nM PD173074. […]

KMS11 (FGFR3-Y373C) = assay: Viability of KMS11 myeloma cells; assay type: cell-based, human; conditions: cells grow independent of FGF
Protocol: as §1, with “BRL). FGFR3 expression was induced by removal of tetracyclin and serum starvation.” for “BRL).”
as §2

UTMC2 cells = assay: Apoptosis of UTMC2 cells co-cultured with bone marrow stroma cells (annexin V); assay type: cell-based, human; conditions: 5 μg/ml, 72 hours (FIG. 5 legend)
Protocol: FIG. 5 is a graph showing apoptosis of UTMC2 cells in response to treatment with PRO-001 in the presence of BMSCs (stroma). BMSCs alone (stroma) or BMSCs together with UTMC2 cells (stroma/UTMC2) were cultured with control antibody or 5 μg/ml PRO-001 for 72 hours and apoptosis was assessed by means of a flow cytometry assay of annexin V binding and propidium iodide exclusion. Values represent means of quadruplicate cultures ±SD.
For studies of apoptosis, cells were seeded at an initial density of 2.5×10^5/ml in 6 well plates coated with BMSCs and supplemented with control (vehicle or antibody) or 5 μg/ml PRO-001 and cultured for […]. Apoptosis was determined by Annexin V staining (Boehringer Mannheim, Indianapolis, Ind.) and analyzed by flow cytometry. Annexin V is a protein that binds specifically to phosphotidyl-serine in the cell membrane. Binding occurs once the membrane has started to break down and the phospholipids are released into the extracellular media.

FGFR3 = FGFR3 (Homo sapiens, UniProt P22607); assay: Flow cytometry staining of primary myeloma cells expressing FGFR3; assay type: binding; design: endogenous in cells; host or cells: primary myeloma cells from bone marrow of t(4;14)-positive MM patients; conditions: versus isotype control
Protocol: FIGS. 6 A-B are flow cytometry charts of human primary myeloma cells treated with anti-FGFR antibody PRO-001. A: Freshly isolated BMSCs were stained with PRO-001 (black line) or control antibody (grey line) and then stained with PE-conjugated anti-human secondary antibody. B: Primary myeloma cells were incubated in the absence (filled) or presence of FGF (light line) or pre-incubated with 5 μg/ml PRO-001 (dark line) for 2 h and then stimulated with FGF. ERK1/2 phosphorylation was assessed by flow cytometry analysis.
Cells (5×10^5) were washed in cold phosphate-buffered saline (PBS) and then incubated for 30 minutes with one of the following: PRO-001 Fab or a human Fab control antibody, rabbit anti-FGFR3 (100) or rabbit preimmune serum in PBS. The cells were then stained with PE-conjugated goat antihuman F(ab′)2 secondary antibody or goat anti-rabbit IgG-PE for 30 minutes on ice. Flow cytometry was performed on a FACSCaliber flow cytometer (BD Biosciences, San Jose, Calif.) and analyzed using Cellquest software (Becton Dickinson). To assess the ability of FGF ligand to compete for binding, cells were incubated in the presence or absence of 30 ng/ml FGF and 5 μg/ml heparin for 30 minutes and then stained with PRO-001 Fab as describe above.
The next experiments were designed to examine the effect of PRO-001 on primary human MM cells. […]

Sequence of FGFR3 (P22607 23-806): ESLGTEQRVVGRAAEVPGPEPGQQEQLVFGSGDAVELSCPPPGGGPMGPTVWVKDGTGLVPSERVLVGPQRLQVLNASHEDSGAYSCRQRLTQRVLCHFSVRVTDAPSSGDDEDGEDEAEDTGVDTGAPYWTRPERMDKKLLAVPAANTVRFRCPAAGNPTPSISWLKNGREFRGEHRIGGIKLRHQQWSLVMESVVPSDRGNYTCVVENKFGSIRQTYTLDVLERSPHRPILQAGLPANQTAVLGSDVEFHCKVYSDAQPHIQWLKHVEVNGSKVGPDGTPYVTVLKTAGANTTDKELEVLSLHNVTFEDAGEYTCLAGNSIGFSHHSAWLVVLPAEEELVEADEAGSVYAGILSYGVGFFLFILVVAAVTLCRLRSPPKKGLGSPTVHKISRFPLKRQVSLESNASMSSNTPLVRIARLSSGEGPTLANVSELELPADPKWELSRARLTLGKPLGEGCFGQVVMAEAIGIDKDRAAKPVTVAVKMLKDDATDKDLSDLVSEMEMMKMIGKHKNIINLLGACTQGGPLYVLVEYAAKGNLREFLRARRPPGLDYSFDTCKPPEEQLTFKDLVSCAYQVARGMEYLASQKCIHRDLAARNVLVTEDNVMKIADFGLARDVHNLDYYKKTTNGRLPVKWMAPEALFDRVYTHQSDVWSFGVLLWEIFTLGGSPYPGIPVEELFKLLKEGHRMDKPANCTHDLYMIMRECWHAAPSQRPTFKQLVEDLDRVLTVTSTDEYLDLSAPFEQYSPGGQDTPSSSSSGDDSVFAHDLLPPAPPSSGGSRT

B1: PRO-001: human anti-FGFR3 Fab from HuCAL library; VH-CDR3 SEQ ID NO:1, VL-CDR3 SEQ ID NO:10; VH SEQ ID NO:19, VL SEQ ID NO:28 (antibody, V domains shown)
VH: QVQLQQSGPGLVKPSQTLSLTCAISGDSVSSNSAAWNWIRQSPGRGLEWLGRTYYRSKWYNDYAVSVKSRITINPDTSKNQFSLQLNSVTPEDTAVYYCARSYYPDFDYWGQGTLVTVSS
VL: DIELTQPPSVSVAPGQTARISCSGDALGDKYASWYQQKPGQAPVLVIYDDSDRPSGIPERFSGSNSGNTATLTISGTQAEDEADYYCQSYDGPDLWVFGGGTKLTVLGQ
H929 cells
  Cell growth of H929 cells in the presence of FGF: resistant
KMS11 (FGFR3-Y373C)
  Viability of KMS11 (FGFR3-Y373C): failed to inhibit the viability
UTMC2 cells
  Apoptosis of UTMC2 cells co cultured with BMSC: induces a high level of apoptosis
FGFR3
  Staining of primary cells expressing FGFR3: identified
